Measurements published in patent US10829528B2, “Therapeutic agents for neurological and psychiatric disorders” (VIB VZW, priority 2016, dated 2020).

Tests used:
[1] = molecular target: T1, sushi1 domain of GABABR1a (Homo sapiens, UniProt Q9UBS5); test: BioLayer Interferometry binding of sAPPα to sushi domains
T1 construct: made in house
Source text: We first determined which GABAB subunit and isoform sAPPα bound. The GABABR is comprised of two subunits, the GABABR1 and the GABABR2 subunit. GABABR1 is present as two main isoforms (1a and 1b), with the only difference between these isoforms being the presence of two protein-binding sushi repeats in the ectodomain of GABABR1a (FIG. 1A-B). […] The sequence of the Sushi domain 1 is […].

[2] = system: cultured hippocampal neurons; test: FM1-43 dye labeling of presynaptic vesicle recycling; assay type: cell-based, mouse
Procedure: We assessed the effect of sAPPα on synaptic vesicle recycling (ref6) using the activity-dependent dye FM1-43. We measured density (D) and intensity (ΔF) of FM1-43 uptake in presynaptic vesicles turned over by stimulation of 30 action potentials (APs) at a rate of 1 Hz in cultured hippocampal neurons.
The experiments were performed in mature (15-28 days in vitro) cultures. Hippocampal neurons were imaged using a FV1000 spectral Olympus confocal microscope using a 60×1.2 NA water immersion objective. The experiments were conducted at room temperature in extracellular Tyrode solution containing (in mM): NaCl, 145; KCl, 3; glucose, 15; HEPES, 10; MgCl2, 1.2; CaCl2), 1.2; pH adjusted to 7.4 with NaOH. For FM-based imaging and analysis, activity-dependent FM1-43 (10 μM) styryl dye was used to estimate basal synaptic vesicle recycling using previously described protocol48. Briefly, action potentials were elicited by passing 50 mA constant current for 1 ms through two platinum wires, separated by ˜7 mm and close to the surface of the coverslip. The extracellular medium contained non-selective blocker of glutamate receptors (0.5 mM kynurenic acid) to block recurrent neuronal activity. 30 stimuli at 1 Hz were applied during FM1-43 loading, while 800 stimuli at 2 Hz during unloading. The fluorescence of individual synapses was determined from the difference between images obtained after staining and after destining (ΔF). Detection of signals was done using custom-written scripts in MATLAB (Mathworks) as described before48.

[3] = system: Schaffer collateral (SC) synapses in mouse hippocampus; test: fEPSP field recordings at Schaffer collateral synapses in hippocampal slices; assay type: cell-based
Procedure: We assessed the effect of sAPPα on the synaptic properties of Schaffer collateral (SC) synapses in mouse hippocampus. […] As change in probability of neurotransmitter release inversely correlates with a change in short-term facilitation, we applied a burst of 5 stimuli at 3 different frequencies (20, 50, and 100 Hz) to induce short-term facilitation at the SC. […] Preincubation with the GABABR antagonist CGP54626 (CGP, 10 μM) for 20 min before the incubation with sAPPα blocked its effects on the peak amplitude of the fESPS and the input/output slopes (FIG. 10f-g). Accordingly, CGP occluded sAPPα-induced augmentation of short-term facilitation at 20, 50, and 100 Hz burst frequencies (FIG. 10h-j).
On the day of recording the brain of a 2-month-old Balb/c male mouse was quickly removed and 400 μm-thick horizontal slices were prepared in an ice-cold oxygenated buffer containing (in mM): sucrose, 182; KCl, 2.5; MgSO4, 2; NaH2PO4, 1.25; NaHCO3, 25; CaCl2), 0.8; MgCl2, 5; glucose, 25; ascorbate, 1; HEPES, 20. The slicing procedure was performed using a Leica VT1200 vibrating microtome. Slices were then transferred to a submerged recovery chamber at room temperature containing oxygenated (95% 02 and 5% C02) storage artificial cerebrospinal fluid (ACSF) for 30 min before the incubations (see below). The storage ACSF contained, in mM: NaCl, 100; KCl, 2.5; MgSO4, 2; NaH2PO4, 1.25; NaHCO3, 25; CaCl2), 1.2; MgCl2, 3; glucose, 20; ascorbate, 1; sodium pyruvate,3 and HEPES, 20. The slices were incubated in the incubation chambers perfused with oxygenated storage ACSF containing the experimental agents for 90 min before performing field recordings: In the incubation chamber, control slices were perfused with normal storage ACSF while sAPPα slices were perfused with storage ACSF containing 1 μM sAPPα. CGP slices were perfused with storage ACSF containing 10 μM CGP54626 (Tocris). CGP+sAPPα slices were preincubated in the chamber perfused with ACSF+CGP before being transferred into the chamber perfused with storage ACSF implemented with 10 μM CGP54626+1 μM sAPPα. All recordings were performed at 32-33° C. in a recording chamber perfused with ACSF (4 ml/min) on the stage of an Olympus BX51WI microscope equipped with IR optics and oblique illumination. Recording ACSF contains, in mM: NaCl, 129; KCl, 2.5; CaCl2), 1.2; MgCl2, 1.2; NaHCO3, 25; NaH2PO4, 1.25; glucose, 15. Stimulation of the Schaffer-collateral was delivered through a glass suction electrode (10-20 μm tip) filled with ACSF. fEPSPs were recorded using a glass pipette containing ACSF (1-2 MΩ) from proximal synapses in the CA1 stratum radiatum. Field recording experiments were analyzed using Clampfit.

T1 sequence (Q9UBS5 26-97): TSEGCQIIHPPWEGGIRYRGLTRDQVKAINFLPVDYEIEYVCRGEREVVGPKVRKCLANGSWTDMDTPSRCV

B1: sAPPα: soluble amyloid precursor protein α ectodomain; mouse APP695 18-612aa, Fc tag cleaved (protein)
chain: LEVPTDGNAGLLAEPQIAMFCGKLNMHMNVQNGKWESDPSGTKTCIGTKEGILQYCQEVYPELQITNVVEANQPVTIQNWCKRGRKQCKTHTHIVIPYRCLVGEFVSDALLVPDKCKFLHQERMDVCETHLHWHTVAKETCSEKSTNLHDYGMLLPCGIDKFRGVEFVCCPLAEESDSVDSADAEEDDSDVWWGGADTDYADGGEDKVVEVAEEEEVADVEEEEADDDEDVEDGDEVEEEAEEPYEEATERTTSTATTTTTTTESVEEVVRVPTTAASTPDAVDKYLETPGDENEHAHFQKAKERLEAKHRERMSQVMREWEEAERQAKNLPKADKKAVIQHFQEKVESLEQEAANERQQLVETHMARVEAMLNDRRRLALENYITALQAVPPRPHHVFNMLKKYVRAEQKDRQHTLKHFEHVRMVDPKKAAQIRSQVMTHLRVIYERMNQSLSLLYNVPAVAEEIQDEVDELLQKEQNYSDDVLANMISEPRISYGNDALMPSLTETKTTVELLPVNGEFSLDDLQPWHPFGVDSVPANTENEVEPVDARPAADRGLTTRPGSGLTNIKTEEISEVKMDAEFGHDSGFEVRHQK
- binding of sAPPα to Sushi 1 domain by BioLayer Interferometry [1]: direct binding
- reduction of total presynaptic strength (S=ΔF×D) ([2]; 1 μM, 15 min after addition, 30 APs at 1 Hz): 57%
- effect on presynaptic vesicle recycling (in words) ([2]; FM1-43, sAPPαΔExD at 1 μM): dose dependent manner
- effect on fEPSP amplitude ([3]; 1 μM sAPPα incubation, 0.1 Hz stimulation): reducing fEPSP amplitude
- decrease in the slope of the input/output curve ([3]; 1 μM sAPPα incubation, 0.1 Hz stimulation, 30-150 μA): 23%
- short-term facilitation versus control slices ([3]; burst of 5 stimuli at 20, 50 and 100 Hz, 1 μM sAPPα): significantly higher
